Laboratory results from patent US20210171652A1 (University of Pennsylvania, published 2021).

T1: Band 3 / glycophorin A (Wright b, Wrb epitope) on human red blood cells (human, UniProt P02724 20-150)
T1 construct: whole, on cells; also called Band3/GPA; AE1
T1 sequence 1: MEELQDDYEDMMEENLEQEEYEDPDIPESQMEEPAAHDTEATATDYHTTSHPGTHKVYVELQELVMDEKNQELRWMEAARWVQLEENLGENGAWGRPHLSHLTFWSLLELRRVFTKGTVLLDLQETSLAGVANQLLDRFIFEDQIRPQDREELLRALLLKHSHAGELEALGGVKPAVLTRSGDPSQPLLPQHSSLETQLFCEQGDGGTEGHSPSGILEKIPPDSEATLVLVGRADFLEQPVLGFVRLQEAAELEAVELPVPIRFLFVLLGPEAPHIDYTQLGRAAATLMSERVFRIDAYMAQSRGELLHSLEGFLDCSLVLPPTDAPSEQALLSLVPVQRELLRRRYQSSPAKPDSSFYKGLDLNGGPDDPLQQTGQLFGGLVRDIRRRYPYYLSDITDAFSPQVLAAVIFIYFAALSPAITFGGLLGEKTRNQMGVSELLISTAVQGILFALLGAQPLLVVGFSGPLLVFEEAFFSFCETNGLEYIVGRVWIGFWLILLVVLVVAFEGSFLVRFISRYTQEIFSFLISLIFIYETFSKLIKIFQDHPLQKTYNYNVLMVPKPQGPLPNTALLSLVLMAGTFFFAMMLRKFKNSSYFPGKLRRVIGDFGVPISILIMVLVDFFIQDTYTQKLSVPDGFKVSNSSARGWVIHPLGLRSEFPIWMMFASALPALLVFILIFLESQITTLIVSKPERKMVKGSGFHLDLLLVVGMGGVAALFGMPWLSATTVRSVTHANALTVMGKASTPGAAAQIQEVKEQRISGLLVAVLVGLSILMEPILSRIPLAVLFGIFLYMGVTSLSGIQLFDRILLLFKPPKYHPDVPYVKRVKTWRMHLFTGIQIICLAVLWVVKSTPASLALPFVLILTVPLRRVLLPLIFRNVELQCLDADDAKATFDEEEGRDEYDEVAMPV
T1 sequence 2: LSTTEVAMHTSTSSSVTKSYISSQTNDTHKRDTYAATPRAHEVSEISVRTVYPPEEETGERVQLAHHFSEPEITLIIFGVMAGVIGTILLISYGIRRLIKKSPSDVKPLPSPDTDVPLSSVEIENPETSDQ


Target: T1, Band 3 / glycophorin A (Wright b, Wrb …)
Experiment: Fab/phage binding assays on human RBCs incl. rare RBC types lacking conserved antigens
Description: An IgG Fab/phage display library was prepared from the peripheral blood lymphocytes of a hyperimmunized macaque using homologous human V-region oligonucleotides (Siegel D L, R. M., Lee H, Blancher A., Production of large repertories of macaque mAbs to human RBCs using phage display. Transfusion, 1999. 39(S10): p. 92S, which is incorporated herein by reference). Fab/phage specific for human RBCs were isolated by panning on intact human RBCs. Monoclonal Fab/phage were grown to produce antibodies for immunoassays and their corresponding DNA was extracted for sequencing. To identify target epitopes, antibodies were screened against RBCs of known serologic phenotypes, including rare cells lacking highly conserved antigens, using standard immunohematologic techniques (Roback, J. D., Technical Manual. 2014: American Association of Blood Banks (AABB), which is incorporated herein by reference.)
Using antibody phage display, we identified non-human-primate Fab antibody fragments to antigenic determinants on human RBCs. By panning phage libraries on human RBCs, we produced a Fab/phage preparation with >10⁷ RBC-specific clones capable of agglutinating human RBCs. By performing binding assays against rare RBC types lacking highly conserved antigens and epitopes, we identified the target antigens of >30 of these clones. At least 34 clones bound the Wright b (Wrb) epitope formed by a Band 3/GPA interaction, present on the RBCs of essentially 100% of the human population. The Wrb epitope, determined by the protein sequence of Band 3, is a site of association between Band 3 with GPA, and GPA expression is simultaneously required for its presence on the membrane (Huang C H, Reid M E, Xie S S, Blumenfeld 00. Human red blood cell Wright antigens: a genetic and evolutionary perspective on glycophorin A-band 3 interaction. Blood. 1996; 87(9):3942-3947). At least 3 other clones bound to a highly-conserved epitope Rh17(Hr0) on human RhCE protein, also present on essentially 100% of the human population. Both these targets are specific for erythroid lineage (Rojewski M T, Schrezenmeier H, Flegel W A. Tissue distribution of blood group membrane proteins beyond red cells: evidence from cDNA libraries. Transfus Apher Sci.

Row | Binder | binding result
1 | KP2-13 Fab/phage clone (anti-Band 3, Wrb) (Fab, V domains shown) VH: EVQLLESGPGLVKPSETLSLTCAVSGGSISGGYDWSWIRQSPGKGLEWIGYIYDSRGTTNYNPSLRKRVAISIDTSRNQFSLNLRSLTAADTAVYYCARRAGYGSAYFDYWGQGVLVTVSS VL: AAELTQSPATLSLAPGETATLSCRASQSIGTNLAWYHQKPGQPPKLLVHTAYVRATGIPNRFSGSGSRTDFTLTINSLQPEDVGVYHCQQYNDLLPLTFGGGTKIDIK | binds
2 | KP2-15 Fab/phage clone (anti-Band 3, Wrb) (Fab, V domains shown) VH: EVQLLESGPGLVKPSETLSLTCAVSGGSISGGYDWSWIRQSPGKGLEWIGYIYDSRGTTNYNPSLRKRVTISIDTSRNQFSLKLRSLTAADTAVYYCARRAGYGSAYFDYWGQGVLVTVSS VL: AAELTQSPATLSVSPGEAATLSCRASQTVGRNLAWYQQKPGQAPKLLVHSAHFRATGIPDRFSGSGSGTDFTLTISSLEPEDAGIYHCQQYNDLLPLTFGGGTKVEIK | binds
3 | KP3-12 Fab/phage clone (anti-Band 3, Wrb) (Fab, V domains shown) VH: EVQLLESGPGLVKPSETLSLTCAVSGNSISSAYGWHWIRQVPGKGLEWIGSIGGSRGTTNYNPSLKSRGTISEDTSKNQFSLRLRSVSAADTAVYFCARDSGYSFRYFDFWGRGVLVTVSS VL: AAELTQSPATLSLAPGETATLSCRASQSIGTNLAWYHQKPGQPPKLLVHSAYVRATGIPNRFSGSGSRTDFTLTINSLQPEDVGVYHCQQYNDLLPLTFGGGTKIDIK | binds
4 | KP2-24 Fab/phage clone (anti-Band 3, Wrb) (Fab, V domains shown) VH: EVQLLESGPGLVKPSETLSLTCTVSGYSISSGYGWGWIRQSPGKGLEWIGYFGGSRGNTNYNPSLKSRVTISQDTSKNQFSLKLKSVTAADTGIYYCARDSGYSRRWVDYWGQGVLVTVSS VL: AAELTQSPATLSLAPGETATLSCRASQSVGTNLAWYHQKPGQPPKLLVHSAYVRATGIPDRFSGSGSRTDFTLTINSLQPEDVGVYHCQQYNDLLPLTFGGGTKIDIK | binds
5 | KP2-22 Fab/phage clone (anti-Band 3, Wrb) (Fab, V domains shown) VH: EVQLLESGPGLVKPSETLSLTCAVSGDSISSGYGWSWIRQTPGKGLEWIGYIGGSRGNTNYNPSLKSRVTISKDTSKNQFSLKLSSVTAADTAVYYCARRAPYWGYSYLDYWGQGVLVTVSS VL: ELTLTQSPATLSLAPGETATLSCRASQSIGTNLAWYHQKPGQSPKLLVHSAYVRATGIPDRFSGSGSRTDFTLTINSLQPEDVGVYHCQQYNDLLPLTFGGGTKVEIK | binds
6 | KP2-20 Fab/phage clone (anti-Band 3, Wrb) (Fab, V domains shown) VH: EVQLLESGPGLVKPSETLSLTCAVSGGSISGGYDWSWIRQSPGKGLEWIGYIYDSRGTTNYNPSLRKRVTISIDTSRNQFSLKLRSLTAADTAVYYCARRAGYGSAYFDYWGQGVLVTVSS VL: AAELTQSPATLSLSPGETATLSCRASQSVGSNLAWYQQKPGQAPKLLVHSGSVRATGIPDRFSGSGSRTDFTLIISSLEPEDVGVYHCQQYNDLLPLTFGGGTKVEIK | binds
7 | KP2-19 Fab/phage clone (anti-Band 3, Wrb) (Fab, V domains shown) VH: EVQLLESGPGLVKPSETLSLTCAVSGGSINGGYDWTWIRQSPGKGLQWIGWIYGSRGTTNYNPSLRNRVTISIDTSRNQFSLRLSSLTAADTAVYYCAKRVGYGNSYFDSWGQGVLVTVSS VL: ELTLTQSPATLSLSPGERATLSCRASQSVSSRLAWYQQKPGQAPRLLIYDASSRVTGIPDRFSGSGSGTDFTLTISSLEPEDVGVYHCQQYNDLLPLTFGGGTKVEIK | binds
8 | KP3-09 Fab/phage clone (anti-Band 3, Wrb) (Fab, V domains shown) VH: EVQLLESGPGLVKPSETLSLTCAVSSLSLSSGFAWSWIRQPPGEGLEWIGSIGGSRDNVNYNPSLKSRVTISKDTSKNQFSLRLRSVTAADTAVYYCVTIHGYRNWYLDHWGQGVLVTVST VL: AAELTQSPAILSLSPGETATLSCRASQSIGTSLAWYQQKPGQAPKLLVHSAYYRATDIPERFSGSGSRTDFTLTISSLEPEDVGVYHCQQYNDLLPLTFGGGTKVEIK | binds
9 | KP2-23 Fab/phage clone (anti-Band 3, Wrb) (Fab, V domains shown) VH: EVQLLESGPGLVKPSETLSLTCTVSGSSLSSAYGWNWIRQPPGKGLEWIGSIGGSRDNTNYNPSLKRRVTISKDTSKNQFSLKLKSVTAADTAVYYCAQRGAYGYSYFDYWGQGVLVAVSS VL: ELTLTQSPATLSLSPGETATLSCRASQTVGRNLAWYQQRPGQAPNLLVHSAYFRATGIPDRFSGSGSGTDFTLTISSLEPEDAGVYHCQQYNDLLPLTFGGGTKVEIK | binds
10 | KP3-19 Fab/phage clone (anti-Band 3, Wrb) (Fab, V domains shown) VH: EVQLLESGPGLVKPSETLSLTCAVSGGSLSGGYDWYWIRQSPRKGLEYIGYIYDSRGTTNYNPSLKNRVTISIDTSKNHFSLNLKSVTAADTAVYYCARRVGYGATYFDLWGQGVLVTVSS VL: ELVMTQSPATLSLSPGETATLSCRASQSVGSNLAWYQQKPGQAPKLLVHSANFRATGISDRFSGSGSRTDFTLTISSLEPEDVGVYHCQQYNDLLPLTFGGGTKVEIK | binds
11 | KP3-07 Fab/phage clone (anti-Band 3, Wrb) (Fab, V domains shown) VH: EVQLLESGPGLVKPSETLSLTCTVSGSSLSSAYGWNWIRQPPGKGLEWIGSIGGSRDNTNYNPSLKRRVTISKDTSKNQFSLKLKSVTAADTAVYYCAQRGAYGYSYFDYWGQGVLVTVSS VL: ELVMTQSPATLSLSPGETATLSCRASQSIGSNLAWYQQKPGQAPKLLVHSANIRATGIPDRFIGSGSRTDFTLTISSLEPEDVGVYHCQQYNDFLPLTFGGGTKVEIK | binds
12 | KP2-14 Fab/phage clone (anti-Band 3, Wrb) (Fab, V domains shown) VH: EVQLLESGPGLVKPSETLSLTCAVSGSSLSSAYGWNWIRQAPGKRLEWIGFIGGSRDNTNYNPSLRSRVTISKDTSKNHFSLKLTSVTAADTAVYFCARRGAFGNSYFDYWGQGVPVTVSS VL: AAELTQSPATLSLSPGETATLSCRASESVGSSLAWYHQKPGQAPRLLVHSASFRATGIPDRFSGSGSRTEFTLTVSSLEPEDVGVYHCQQYNDLLPLTFGGGTKVEIK | binds
13 | KP3-06 Fab/phage clone (anti-Band 3, Wrb) (Fab, V domains shown) VH: EVQLLESGPGLVRPSETLSVTCDVSGGSISSASWSWIRQAPGKRLEWIGAISGSGSPTNVNPSLKSRVTLSVDTSKNQLSLKLRSMTAADTAVYYCARRGGYGNRYFDYWGQGVAVTVSS VL: AAELTQSPATLSLSPGETATLSCRASQSVGSSLAWYQQKPGQAPKLLVHSAYFRATGIPDRFSGSGSRTDFTLTISSLEPEDVGVYHCQQYNDLLPLTFGGGTKVEIK | binds
14 | KP3-20 Fab/phage clone (anti-Band 3, Wrb) (Fab, V domains shown) VH: EVQLLESGPGLVKPSETLSLTCAVSGYSISSGFAWNWIRQTPGKGLEWIGYIGGSRDNTNYNPSLKSRVTISKDTSKNQFSLKLTSMTAADTAMYYCARRGAYGNSYFDFWGQGVPVTVSS VL: AAELTQSPATLSLSPGETATLSCRASQSVGSNVAWYQQKPGQAPKLLVHSAYYRATGIPDRFSGSGSRTDFTLTISSLEPEDVGVYHCQQYNDLLPLTFGGGTKVEIK | binds
15 | KP2-17 Fab/phage clone (anti-Band 3, Wrb) (Fab, V domains shown) VH: EVQLLESGPGLVKPSETLSLTCAVSGYSISSGYGWTWIRQPPGKGLEWIGYIGGSRGNANYNPSLKSRVTISKDTSKNQFSLKLTSVTAADTAVYYCARDGGYGERYLEFWGQGALVTVSS VL: AAELTQSPAFRSVTLKEKVTITCQASQSIGSSLHWYQQKPDQSPKLLIKFASQSISGVPSRFSGSGYGTDFTLTINSLEAEDAATYYCHQSSSFPWTFGQGTKVEIK | binds
